Measurements from doi:10.1101/2022.10.08.511438.
One block for each substance: values may come before it.

Tests used:
[1] = molecular target: dihydrolipoyl succinyltransferase (E2o), core of the oxoglutarate dehydrogenase complex, Chaetomium thermophilum (C. thermophilum (endogenous in mycelium lysate)); test: label-free MS quantitation
[2] = molecular target: dihydrolipoyl succinyltransferase (E2o), core of the oxoglutarate dehydrogenase complex, Chaetomium thermophilum (C. thermophilum (endogenous in mycelium lysate)); test: cryo-EM structure

stoichiometry N (E3 dimers relative to 24 E2o subunits) [1]: 4
Substance: dihydrolipoyl dehydrogenase (E3), Chaetomium thermophilum (enzyme)

stoichiometry N (E1o dimers around the 24-mer E2o core) [1]: 9
stoichiometry N (E1o dimers relative to 24 E2o subunits) [1]: < 10
Substance: oxoglutarate dehydrogenase (E1o) of the oxoglutarate dehydrogenase complex (OGDHc), Chaetomium thermophilum (enzyme)

stoichiometry N [2]: 24 subunits
Substance: dihydrolipoyl succinyltransferase (E2o), core of the oxoglutarate dehydrogenase complex, Chaetomium thermophilum (enzyme)
